# Substitutions are numbered along the chain they refer to.
# B1: BD-836 (antibody, V domains shown)
# VH: QVQLVQSGPEVKKPGTSVRVSCKASGFTFSTSAVQWVRQARGQRLEWIGWIAVGSGKTDYLQKFQERVTMTRDESTNTAYMQLSSLRSEDTAVYYCAAPHCSGGTCYDGFDIWGQGTLVTVSS
# VL: EIVLTQSPGTLSLSPGERATLSCRASQSVRSGYFAWYQQRPGRAPRLLIYGASSRATAIPDRFSGSGSGTDFTLTINRLEPEDFAVYYCQQYGTSPWTFGQGTKVEIK
# B2: S2E12 (antibody, V domains shown)
# VH: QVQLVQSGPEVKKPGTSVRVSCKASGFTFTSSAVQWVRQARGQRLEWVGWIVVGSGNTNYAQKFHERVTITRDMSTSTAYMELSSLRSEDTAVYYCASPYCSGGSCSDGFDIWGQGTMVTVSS
# VL: DIVLTQTPGTLSLSPGERATLSCRASQSVSSSYLAWYQQKPGQAPRLLIYGASSRATGIPDRFSGSGSGTDFTLTISRLEPEDFAVYYCQQYVGLTGWTFGQGTKVEIK
# B3: COVOX-222 (antibody, V domains shown)
# VH: EVQLVESGGGLIQPGGSLRLSCAASGLTVSSNYMSWVRQAPGKGLEWVSVIYSGGSTFYADSVKGRFTISRDNSKNTLYLQMNSLGAEDTAVYYCARGEGSPGNWFDPWGQGTLVTVSS
# VL: DVVMTQSPGTLSLSPGERATLSCRASQSVPSSYLAWYQQKPGQAPRLLIYGASTRATGIPDRFSGSGSGTDFTLTISRLEPEDFAVYYCQHYDTSPRFGGGTKVDIK
# B4: BG4-25 (antibody, V domains shown)
# VH: EVQLVESGGGLIQPGGSLRLSCAASGITVVRNYMTWVRQAPGKGLEWVSVIYSGGTTYYADSVKGRFTISRDNSKNTMYLQMNSLRAEDTAIYYCARDLEVVGAMDVWGQGTTVTVSS
# VL: EIVLTQSPGTLSLSPGERATLSCRASQSVPSSYLAWYQQKPGQAPRLLIYGASSRATGIPDRFSGSGSGTDFTLTISRLEPEDFAVYYCQQYGSPMYTFGQGTKLEIK
# B5: COV2-2072 (antibody, V domains shown)
# VH: QMQLVQSGPEVKKPGTSVKVSCKTSGFTFTSSAIQWVRQARGQRLEWIGWIVVGSGNTNYAQKFQERVTITRDMSTSTAYMELSSLRSEDTAVYYCAAPHCNRTSCYDAFDLWGQGTMVTVSS
# VL: not shown
# B6: COV2-2381 (antibody, V domains shown)
# VH: B5 VH with T24A, I34V, V52A, T69S, H100Y, N102S, Y107H, L112I, M118K
# VL: EVVLTQSPGTLSLSPGERATLSCRASQSVSSSYLAWYQQKPGQAPRLLIYGASSRATGIPDRFSGSGSGTDFTLTISRLEPEDFAVYHCQHFGSSSQWTFGQGTKVEIK
# B7: BD-618 (antibody, V domains shown)
# VH: EVQLVESGGGLVQPGGSLRLSCAVSGFIVSRNYMTWVRQAPGKGLEWVSLIYSGGSTFYTNSVKGRFTISRDNSKNTLYLQMDSLRAEDTAVYYCARGPYPRFDYWGQGTLVTVSS
# VL: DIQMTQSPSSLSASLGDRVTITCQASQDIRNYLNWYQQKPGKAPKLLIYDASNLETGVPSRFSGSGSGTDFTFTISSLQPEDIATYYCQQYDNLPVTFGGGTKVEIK
# B8: BD-614 (antibody, V domains shown)
# VH: QVQLVESGGGLVQPGGSLRLSCAASGLIVSSNYMSWVRQAPGEGLEWVSVIYSGGSTYYADSVKGRFTISRDTSKNTLYLQMNSLRAEDTAVYYCARARIYTYGPDYWGQGTLVTVSS
# VL: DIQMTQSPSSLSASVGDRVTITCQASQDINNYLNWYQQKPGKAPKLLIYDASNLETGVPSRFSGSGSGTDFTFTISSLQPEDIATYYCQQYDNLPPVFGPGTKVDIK
# B9: BD55-387 (antibody, V domains shown)
# VH: QITLKESGPTLVKPTQTLTLTCTFSGFSLSTSGVGVGWIRQPPGKALEWLALIYWDDDKRYSPALKSRLTITEDTSKNQVVLTMTNMDPVDTATYYCAHCAPAWNYFDYWGQGTLVAVSS
# VL: QSVLTQPPSVSGAPGQRVTISCTGSSSNIGAGYDVHWYQQLPGTAPKLLIYRNSNRPSGVPGRFSGSKSGTSASLAITGLQAEDEADYFCQSYDSSLSGWVFGGGTKLTVL
# B10: BD-812 (antibody, V domains shown)
# VH: EVQLVQSGAEVKKPGESLKISCQFSEYKLISFWIAWVRQRPGKGLEWMGIIYPDDSDTKYSPSSQGQVTISADKSIRTAYLQWSSLMASDTAMYYCTSGSYYGTLDFWGQGTLVTVSS
# VL: DIEITQSPSSLSASVGDRVTISCRASQDIRTYVAWYQQRPGKVPRLLIYAASTLQSGVPSRFSGRGSGTDFTLTISSLQPEDVATYYCQQYNSAPLTFGGGAKVEIK
# B11: LY-CoV1404 (antibody, V domains shown)
# VH: QITLKESGPTLVKPTQTLTLTCTFSGFSLSISGVGVGWLRQPPGKALEWLALIYWDDDKRYSPSLKSRLTISKDTSKNQVVLKMTNIDPVDTATYYCAHHSISTIFDHWGQGTLVTVSS
# VL: QSALTQPASVSGSPGQSITISCTATSSDVGDYNYVSWYQQHPGKAPKLMIFEVSDRPSGISNRFSGSKSGNTASLTISGLQAEDEADYYCSSYTTSSAVFGGGTKLTVL
# B12: BD55-5293 (antibody, V domains shown)
# VH: EVQLVQSGAEVKKPGESLKISCKTSGYSFISNWIGWVRQMPGKGLEWMGIIYPGDSDTRYSPSFQGQVTISVDKSISTAYLQWTSLKASDTAMYFCTRRGDYGEFGGFDGDWGQGTLVTVTS
# VL: DIQMTQSSSSLSASVGDRVTITCRASQSTGRYLNWYQQKAGKAPKLVIYAVSSLQSGVPSRFSGSGSGTEFTLTINSLQPEDFATYYCQQTYSIPFTFGPGTKVDLK
# B13: BD-804 (antibody, V domains shown)
# VH: EVQLVESGGGLVKPGGSLRLSCAASGFTFSNYDMNWVRQAPGKGLEWVSSISSSSTYTHYADSVKGRFTISRDNAKNSLYLQMNSLRAEDTAVYYCARDRAYRLGELSSLWGDDAFDIWGQGTMVTVSS
# VL: AVWMTQSPSLLSASTGDRVTVSCRMSQDISSYLAWYQQKPGKAPELLIYAAFTLQSGVPSRFSGSGSGTEFTLTISSLQSEDFATYYCQQYYSFPHTFGQGTKLERR
# B14: BD55-1962 (antibody, V domains shown)
# VH: QVQLVQSGAEVKKPGSSVKVSCTASGDSFSSYAITWVRQAPGQGLEWMGRIIPILGIANYAQKFQGRVTLTADKSAGTAYMELSSLRSDDTAVYYCASGYDFHFDYWGQGTLVTVYS
# VL: QSALTQPASVSGSPGQSITISCTGTSSDVGDYKYVSWYQQHAGKAPKLMIHDVSKRPSGVSSRFSGSKSGNTASLTISGLQAEDEADYYCSSYTSSSSWVFGGGTKLTVL
# B15: BD55-1706 (antibody, V domains shown)
# VH: QVQLQESGPGLLKPSETLSLTCTVSGGSINSYYWNWIRQSPRKGLEWIGYIFFSGSTNYNPSLKSRVTISLDRSKNQFSVHLRSVTAADTAVYYCARGDSKTGYDLELFDYWGHGTLVTVSS
# VL: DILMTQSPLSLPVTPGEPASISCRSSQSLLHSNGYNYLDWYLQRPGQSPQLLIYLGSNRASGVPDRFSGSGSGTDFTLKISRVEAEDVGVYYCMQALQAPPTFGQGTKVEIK
# B16: BD-566 (antibody, V domains shown)
# VH: QVQLVESGGGVVQPGRSLRLSCAASGFTFRSYGMHWVRQAPGKGLEWVAVISKDGSNKYYADSVKGRFTISRDNSKNTLYLQWNSLRAEDTAVYYCARALVVPGAPRYYYYGMDVWGQGTTVTVSS
# VL: AIQLTQSPSSLSASVGDRVTITCRASQGISSALAWYQQRPGKAPKLLIYDASTLESGVPSRFSGSGSGTDFTLTISSLQPEDFATYYCQQFNTYPWTFGQGTKVELK
# B17: BD-369 (antibody, V domains shown)
# VH: EVQLVESGGGLVQPGGSLRLSCAASGITVSSNYMTWVRQAPGKGLEWVSLIYSGGSTYYADSVKGRFTISRDNSKNTLHLQMNSLRGEDTAVYYCARDLVAFGMDVWGQGTTVTVSS
# VL: AIQLTQSPSSLSASVGDRVTITCRASQGISSYLAWYQQKPGKAPKLLIYAASTLQGGVPSRFSGSGSGTDFTLTISSLQSEDSATYYCQQLNSDTPTFGPGTKVEIK
# Biological target: SARS-CoV-2 Omicron (B.1.1.529) RBD (SARS-CoV-2 Omicron B.1.1.529 (BA.1), strain)
row,Binder,binding result
1,B1,binds
2,B2,binds
3,B3,binds
4,B4,binds
5,B5,binds
6,B6,binds
7,B7,binds
8,B8,binds
9,B9,binds
10,B10,binds
11,B11,binds
12,B12,binds
13,B13,binds
14,B14,binds
15,B15,binds
16,B16,binds
17,B17,binds

# Source: article PMC8866119 (Nature, 2021)
